Data: patent US11141452 (dated 2021)
Like-named read-outs stand apart in the source and are kept apart here. Non-standard residues stand in square brackets, D forms with d. Primed or numbered codes have the meaning given here. No end group written: not given here. *: point of attachment. NH(3,5-(CF3)2-benzyl) = FC(F)(F)c1cc(CN*)cc(C(F)(F)F)c1; NMePhe(4-F) = CN[C@@H](Cc1ccc(F)cc1)C(=O)O; Phe(4-F) = N[C@@H](Cc1ccc(F)cc1)C(=O)O; Dmt = Cc1cc(O)cc(C)c1C[C@H](N)C(=O)O; NMeF = CN[C@@H](Cc1ccccc1)C(=O)O; 4‑Ampa = not defined here; 4‑Apac = not defined here; hSer = N[C@@H](CCO)C(=O)O; 4Abz = Nc1ccc(C(=O)O)cc1; 4Amb′ = not defined here; Orn = NCCC[C@H](N)C(=O)O; Dab = NCC[C@H](N)C(=O)O; Dap = NC[C@H](N)C(=O)O; NHBn = c1ccc(CN*)cc1; Ahx = NCCCCCC(=O)O; GABA = NCCCC(=O)O; βAla = NCCC(=O)O

How the values were obtained:
Assay in all cases: competition
[1] = target: T1, human NK1 receptor (human, UniProt P25103)
T1 chain: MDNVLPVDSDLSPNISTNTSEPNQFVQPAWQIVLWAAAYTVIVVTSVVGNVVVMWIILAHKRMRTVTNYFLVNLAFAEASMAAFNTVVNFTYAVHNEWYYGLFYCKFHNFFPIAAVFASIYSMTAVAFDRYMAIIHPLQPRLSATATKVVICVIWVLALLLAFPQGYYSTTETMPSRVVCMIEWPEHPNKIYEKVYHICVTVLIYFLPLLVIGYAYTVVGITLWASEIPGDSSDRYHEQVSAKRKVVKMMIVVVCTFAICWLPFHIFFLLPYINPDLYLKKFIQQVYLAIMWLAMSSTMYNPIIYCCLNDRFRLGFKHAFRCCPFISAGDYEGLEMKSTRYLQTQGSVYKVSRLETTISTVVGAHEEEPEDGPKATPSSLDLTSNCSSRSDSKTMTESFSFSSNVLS

[2] = target: mu opioid receptor (MOR) (UniProt P35372)
mu opioid receptor (MOR), sequence (P35372 whole entry): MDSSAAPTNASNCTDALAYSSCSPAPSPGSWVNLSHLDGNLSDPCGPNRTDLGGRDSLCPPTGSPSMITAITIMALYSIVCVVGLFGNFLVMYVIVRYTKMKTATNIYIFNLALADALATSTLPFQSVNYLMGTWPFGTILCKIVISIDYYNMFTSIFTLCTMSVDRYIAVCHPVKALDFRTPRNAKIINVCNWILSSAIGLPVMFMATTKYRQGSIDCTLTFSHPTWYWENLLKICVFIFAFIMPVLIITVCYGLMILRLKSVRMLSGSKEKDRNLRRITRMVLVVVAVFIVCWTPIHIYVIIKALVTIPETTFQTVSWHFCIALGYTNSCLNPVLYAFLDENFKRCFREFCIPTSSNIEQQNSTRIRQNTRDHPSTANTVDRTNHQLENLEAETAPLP

[3] = target: T1, human NK1 receptor
[4] = target: T2, delta opioid receptor (DOR) (UniProt P41143)
T2 chain: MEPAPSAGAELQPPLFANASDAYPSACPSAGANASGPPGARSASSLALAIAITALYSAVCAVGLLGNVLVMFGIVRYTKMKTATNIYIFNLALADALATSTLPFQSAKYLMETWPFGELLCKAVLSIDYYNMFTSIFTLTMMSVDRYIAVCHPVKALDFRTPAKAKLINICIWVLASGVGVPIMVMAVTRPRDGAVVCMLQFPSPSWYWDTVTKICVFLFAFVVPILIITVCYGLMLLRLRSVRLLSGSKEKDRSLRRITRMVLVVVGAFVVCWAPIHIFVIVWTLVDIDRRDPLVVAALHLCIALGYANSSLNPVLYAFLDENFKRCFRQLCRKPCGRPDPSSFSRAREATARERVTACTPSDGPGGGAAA

[5] = target: mu opioid receptor (MOR) (UniProt P35372); remark: listed apart in the source
[6] = target: T3, rat NK1 receptor (rat, UniProt P14600)
T3 chain: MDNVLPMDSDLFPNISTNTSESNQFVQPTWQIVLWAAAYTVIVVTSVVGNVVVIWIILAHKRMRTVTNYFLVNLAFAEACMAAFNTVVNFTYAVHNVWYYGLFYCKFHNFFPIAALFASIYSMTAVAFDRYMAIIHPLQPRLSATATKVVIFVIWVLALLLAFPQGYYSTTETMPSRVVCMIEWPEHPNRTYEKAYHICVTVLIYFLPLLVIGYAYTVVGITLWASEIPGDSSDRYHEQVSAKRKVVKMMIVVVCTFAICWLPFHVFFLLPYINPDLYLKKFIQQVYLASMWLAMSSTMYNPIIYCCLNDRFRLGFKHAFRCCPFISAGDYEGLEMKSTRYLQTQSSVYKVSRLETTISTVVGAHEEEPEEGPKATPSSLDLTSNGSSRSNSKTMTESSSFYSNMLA

[7] = target: T3, rat NK1 receptor
[8] = target: T2, delta opioid receptor (DOR)
[9] = target: T2, delta opioid receptor (DOR)
[10] = target: mu opioid receptor (MOR) (UniProt P35372); remark: listed apart in the source
[11] = target: T1, human NK1 receptor
[12] = target: T3, rat NK1 receptor

Binder: XAGFPLW (Dmt1, D-Ala2, Phe(4-Br)4; C-terminal NH-Bn(3',5'-(CF3)2)) [AKG192]
- Ki [1]: 2.54 nM
- Ki [2]: 5 nM

Binder: Y[dA]G[NMeF]GPLW-{NH(3,5-(CF3)2-benzyl)} [AKG113]
- Ki [3]: 15 nM
- Ki [4]: 46 nM
- Ki [5]: 3 nM
- Ki [6]: 60.5 nM

Binder: XAGFPLW (Dmt1, D-NMeAla2, NMePhe4; C-terminal NH-Bn(3',5'-(CF3)2)) [AKG184]
- Ki [1]: 2.84 nM
- Ki [7]: 115 nM

Binder: Y[dA]GFPLW-{NH(3,5-(CF3)2-benzyl)} [TY012]
- Ki [1]: 0.6 nM
- Ki [7]: 33 nM
- Ki [2]: 9.5 nM

Binder: Y[dA]G[Phe(4-F)]PLW-{NH(3,5-(CF3)2-benzyl)} [AKG190]
- Ki [8]: 0.2 nM
- Ki [1]: 5.61 nM
- Ki [7]: 34.4 nM
- Ki [2]: 4 nM

Binder: [Dmt][dA]G[NMeF]SPLW-NHBn [AKG132]
- Ki [9]: 2 nM
- Ki [10]: 0.4 nM
- Ki [11]: 5.61 nM
- Ki [12]: 31.1 nM

Binder: XAGFPLW (Dmt1, D-NMeAla2, NMeGly3; C-terminal NH-Bn(3',5'-(CF3)2)) [AKG183]
- Ki [1]: 2.49 nM
- Ki [7]: 17.6 nM

Binder: Y[dA]G[NMeF][4‑Apac]PLW-{NH(3,5-(CF3)2-benzyl)} (reading uncertain) [AKG177]
- Ki [3]: 5.28 nM
- Ki [4]: 70 nM
- Ki [5]: 1 nM
- Ki [6]: 74.3 nM

Binder: Y[dA]GFSPLW (not fully specified (C-terminus)) [AKG038]
- Ki [9]: 7 nM
- Ki [10]: 127 nM
- Ki [11]: 1.94 nM
- Ki [12]: 206 nM

Binder: Y[dA]G[NMeF][4Amb′]PLW-{NH(3,5-(CF3)2-benzyl)} (reading uncertain) [AKG125]
- Ki [3]: 2.27 nM
- Ki [4]: 117 nM
- Ki [5]: 5 nM
- Ki [6]: 29.9 nM

Binder: Y[dA]GF[hSer]PLW-NHBn [AKG039]
- Ki [9]: 6 nM
- Ki [10]: 116 nM
- Ki [11]: 1.32 nM
- Ki [12]: 148 nM

Binder: XAGFPLW (Dmt1, D-Ala2, Phe(4-Cl)4; C-terminal NH-Bn(3',5'-(CF3)2)) [AKG191]
- Ki [8]: 5 nM
- Ki [7]: 26.5 nM
- Ki [2]: 2 nM

Binder: Y[dA]GF[dS]PLW-NHBn [AKG101]
- Ki [9]: 34 nM
- Ki [10]: 196 nM
- Ki [11]: 2.77 nM
- Ki [12]: 108 nM

Binder: XAGFPLW (Dmt1, D-Ala2, NMePhe(4-F)4; C-terminal NH-Bn(3',5'-(CF3)2)) [AKG128]
- Ki [1]: 2.62 nM
- Ki [7]: 33.8 nM
- Ki [2]: 1 nM

Binder: XAGFPLW (Dmt1, D-Ala2, NMePhe4; C-terminal NH-Bn(3',5'-(CF3)2)) [AKG115]
- Ki [8]: 5 nM
- Ki [7]: 48.3 nM
- Ki [2]: 1 nM

Binder: Y[dA]G[NMeF]MPLW-NHBn [AKG106]
- Ki [3]: 1.47 nM
- Ki [6]: 9.9 nM

Binder: XAGFPLW (Dmt1, D-NMeAla2; C-terminal NH-Bn(3',5'-(CF3)2)) [AKG181]
- Ki [1]: 4.81 nM
- Ki [7]: 26.4 nM

Binder: YAGFXPLW (D-Ala2, NMePhe4, Nle5; C-terminal NH-Bn(3',5'-(CF3)2)) [AKG112]
- Ki [3]: 14 nM
- Ki [4]: 22 nM
- Ki [5]: 13 nM

Binder: Y[dA]G[NMePhe(4-F)]GPLW-{NH(3,5-(CF3)2-benzyl)} [AKG131]
- Ki [3]: 2.14 nM
- Ki [4]: 17 nM
- Ki [5]: 185 nM
- Ki [6]: 89.1 nM

Binder: Y[dA]G[NMeF]KPLW (not fully specified (C-terminus)) [AKG174]
- Ki [10]: 8 nM
- Ki [11]: 3.18 nM
- Ki [12]: 7.31 nM

Binder: Y[dA]G[NMeF][GABA]PLW-{NH(3,5-(CF3)2-benzyl)} [AKG123]
- Ki [3]: 1.56 nM
- Ki [4]: 3 nM
- Ki [5]: 9 nM

Binder: Y[dA]G[NMeF][4‑Ampa]PLW-{NH(3,5-(CF3)2-benzyl)} (reading uncertain) [AKG178]
- Ki [3]: 3.5 nM
- Ki [4]: 100 nM
- Ki [6]: 72.3 nM

Binder: XAGFPLW (Dmt1, D-NMeAla2, NMeGly3, NMePhe4; C-terminal NH-Bn(3',5'-(CF3)2)) [AKG185]
- Ki [1]: 3.47 nM
- Ki [7]: 74.8 nM

Binder: Y[dA]G[NMeF]SPLW-NHBn [AKG126]
- Ki [9]: 63 nM
- Ki [10]: 2 nM
- Ki [11]: 0.86 nM
- Ki [12]: 31.5 nM

Binder: Y[dA]G[NMeF][Dap]PLW-NHBn [AKG171]
- Ki [9]: 33 nM
- Ki [10]: 3 nM
- Ki [11]: 2.98 nM
- Ki [12]: 8.59 nM

Binder: XAGFPLW (Dmt1, D-Ala2, NMeGly3; C-terminal NH-Bn(3',5'-(CF3)2)) [AKG180]
- Ki [1]: 2.86 nM
- Ki [7]: 17.1 nM

Binder: Y[dA]G[Phe(4-F)]GPLW-{NH(3,5-(CF3)2-benzyl)} [AKG130]
- Ki [3]: 1.54 nM
- Ki [4]: 5 nM
- Ki [5]: 9 nM
- Ki [6]: 72.5 nM

Binder: Y[dA]G[NMeF][βAla]PLW-{NH(3,5-(CF3)2-benzyl)} [AKG119]
- Ki [3]: 0.93 nM
- Ki [4]: 46 nM
- Ki [5]: 8 nM
- Ki [6]: 29.4 nM

Binder: Y[dA]G[NMeF][Dab]PLW-NHBn [AKG172]
- Ki [9]: 100 nM
- Ki [10]: 8 nM
- Ki [11]: 3.05 nM
- Ki [12]: 8.24 nM

Binder: XAGFMPLW (not fully specified; Dmt1, D-Ala2, NMePhe4 as described; C-terminal benzylamide) [AKG107]
- Ki [3]: 1.97 nM
- Ki [6]: 13.6 nM

Binder: Y[dA]G[NMeF][4Abz]PLW-{NH(3,5-(CF3)2-benzyl)} [AKG176]
- Ki [3]: 4.12 nM
- Ki [4]: 82 nM
- Ki [5]: 1 nM
- Ki [6]: 77.8 nM

Binder: Y[dA]G[NMeF][Orn]PLW (not fully specified (C-terminus)) [AKG173]
- Ki [9]: 0.05 nM
- Ki [10]: 5 nM
- Ki [11]: 15.5 nM
- Ki [12]: 65.2 nM

Binder: Y[dA]G[NMeF][Ahx]PLW-{NH(3,5-(CF3)2-benzyl)} [AKG124]
- Ki [3]: 1.22 nM
- Ki [4]: 31 nM
- Ki [5]: 7 nM
- Ki [6]: 44.3 nM

Binder: XAGFPLW (Dmt1, D-Ala2, NMeGly3, NMePhe4; C-terminal NH-Bn(3',5'-(CF3)2)) [AKG182]
- Ki [1]: 5 nM
- Ki [7]: 110 nM

Binder: XAGFPLW (Dmt1, D-Ala2, Phe(4-I)4; C-terminal NH-Bn(3',5'-(CF3)2)) [AKG193]
- Ki [2]: 6 nM
